# Several values for one entry are separate records, joined by “and”; a condition that tells them apart may be missing. Equal entries are not always repeated. Entries after “also recorded” stand apart in the source; their conditions may differ.
# What was measured:
# [1] = Stability of Compound 1 at long-term storage condition of −80° C.; assay type: physicochemical
# occult lesions = assay: Detection of occult disease by Compound 1 fluorescence; assay type: in vivo, human
# Source text: During surgery, intraoperative images of Compound 1 fluorescence were obtained from the primary tumors and metastatic lymph nodes as well as the surrounding tissue which include normal noncancerous tissues using NIR camera(s). This may be in vivo and/or ex vivo imaging of resected specimens. If the surgeon considered it safe, up to a maximum of 10 study related biopsies were taken from the regions with Compound 1 fluorescence that were otherwise not suspected as tumor clinically. Feasibility to image tumors with Compound 1 using multiple NIR cameras was evaluated.
# Compound 1 fluorescence detected 5 additional occult lesions (1 patient with HNSCC and 4 patients with BC) otherwise missed by SOC preoperative surgery or during surgery or postoperative pathology. In 1 patient with HNSCC (ON1113) who had both a fluorescent and histopathological positive surgical margin, a satellite metastasis that was otherwise undetected by standard-of-care surgery was detected in the wound bed by Compound 1 fluorescence image-guided surgery.
# [2] = test system: histology-confirmed tumor and normal tissue; assay: Postoperative tissue slice fluorescence imaging (LI-COR Pearl; MFI, CNR, TBR, ROC) correlated with histopathology; assay type: in vivo, human; details: for Ex Vivo Tissue Slice CNR / Ex Vivo Tissue Slice TBR: per patient, LI-COR Pearl
# Source text: Timing of postoperative tissue slice imaging was adapted to accommodate the differences in the SOC for specimen processing of the different tumor types. Briefly, BC specimens were sliced fresh on the day of surgery and then formalin fixed, other tumor types were sliced after formalin fixation of the whole resection specimen 1 to 3 days after surgery. Generally, the surgical specimen was serially sliced into ±0.5 cm thick tissue slices. White light photographs were made during and directly after slicing for orientation purposes. After slicing, fluorescence imaging on both sides of each tissue slice was performed in a light-tight environment (LI-COR PEARL® Trilogy system). BC slices were therefore imaged approximately 120 min after excision, other tumor types were sliced and imaged the subsequent day(s) after excision and formalin fixation.
# Each BLS underwent overnight formalin fixation in 4% paraformaldehyde/phosphate buffered saline. The pathologist then macroscopically sampled parts of BLS (FFPE embedding) for further analysis according to SOC and preparation of 4 μm slices for hematoxylin and eosin (H/E) staining to delineate tumor tissue for histopathological correlation. Additional FFPE blocks could be embedded based on fluorescence imaging of the BLS additional to the SOC examination by conventional macroscopic visual inspection of the pathologist. A standardized workflow was executed in order to cross-correlate final histopathology results with recorded fluorescence images of tissue slices of interest. FFPE blocks were scanned after 7 to 14 days using the Odyssey Flatbed Scanner (LI-COR Bioscience).
# After the SOC pathological procedure was performed (approximately 7-10 days for Phase 1a and 7-14 days for Phase 1b), H/E slices were reviewed and discussed with the dedicated board-certified pathologist for the respective tumor type.
# A correlation between HE slices and fluorescence images (i.e., bread loaf slice or BLS) were made using Adobe Illustrator and Fiji (ImageJ). After precisely and manually drawing the region of interest (ROI) containing tumor and background based on the histopathological outcome, a CNR was calculated for each LI-COR PEARL image of a separate BLS for each patient. The median CNR was calculated based on all available BLS containing tumor.
# Compound 1 fluorescence images were captured from the postoperative specimens (BLS specimens) prepared at each step of the standard pathology for the purposes of correlating Compound 1 fluorescence with histopathological finding of the tumor and the normal tissue. LI COR PEARL, a laboratory camera with capabilities to standardize imaging and fluorescence quantification, was used to compare fluorescence intensity across multiple specimens.
# Intraoperative fluorescence intensity cannot be standardized and compared between patients or dose levels due to the unique presentation of each surgical environment. Multiple variables such as camera angle, camera-tissue distance, tumor location, and coverage by other tissues or fat affect the absolute value of the fluorescence signal. To enable direct comparison of MFI across patients and doses, patient tissue slices were imaged with LI-COR Pearl, the standardizable close field camera, using the standard postoperative workflow for fluorescence.
substance,measurement,setting,value
PEO90-140-b-P(DBA60-150-r-ICG0-3-r-AMA0-3) [Compound 1],% ICG 784 nm (% wt),[1]; 0 months,1.3%
same,Appearance,[1]; 0 months,Pass
same,Assay RID - Polymeric Content SEC (% wt),[1]; 0 months,96.4%
same,Content 784 nm (% wt),[1]; 0 months,80.9%
same,Identification - SEC (RT),[1]; 0 months,Pass
same,Impurities Specified: ICG-like,[1]; 0 months,1.9%
same,Microbial Limits Total aerobic count,[1]; 0 months,<1 cfu/mg
same,Microbial Limits Total yeast and mold,[1]; 0 months,<1 cfu/mg
same,Total Impurities,[1]; 0 months,1.9%
same,Water Content,[1]; 0 months,0.48%
same,Duration stable at long-term storage condition,"[1]; 3.0 mg/mL injection, the duration thus far",up to 24 months
same,% ICG 784 nm (% wt),[1]; 1 month,1.4%
same,Appearance,[1]; 1 month,Pass
same,Assay RID - Polymeric Content SEC (% wt),[1]; 1 month,98.5%
same,Content 784 nm (% wt),[1]; 1 month,82.0%
same,Identification - SEC (RT),[1]; 1 month,Pass
same,Impurities Specified: ICG-like,[1]; 1 month,1.8%
same,Total Impurities,[1]; 1 month,1.8%
same,Water Content,[1]; 1 month,0.33%
same,% ICG 784 nm (% wt),[1]; 6 months,1.4%
same,Appearance,[1]; 6 months,Pass
same,Assay RID - Polymeric Content SEC (% wt),[1]; 6 months,102.3%
same,Content 784 nm (% wt),[1]; 6 months,86.2%
same,Identification - SEC (RT),[1]; 6 months,Pass
same,Impurities Specified: ICG-like,[1]; 6 months,1.7%
same,Total Impurities,[1]; 6 months,1.7%
same,Water Content,[1]; 6 months,0.54%
same,% ICG 784 nm (% wt),[1]; 12 months,1.3%
same,Appearance,[1]; 12 months,Pass
same,Assay RID - Polymeric Content SEC (% wt),[1]; 12 months,90.4%
same,Content 784 nm (% wt),[1]; 12 months,74.7%
same,Identification - SEC (RT),[1]; 12 months,Pass
same,Impurities Specified: ICG-like,[1]; 12 months,1.7%
same,Microbial Limits Total aerobic count,[1]; 12 months,<1 cfu/mg
same,Microbial Limits Total yeast and mold,[1]; 12 months,<1 cfu/mg
same,Total Impurities,[1]; 12 months,1.7%
same,Water Content,[1]; 12 months,0.74%
same,% ICG 784 nm (% wt),[1]; 18 months,1.5%
same,Appearance,[1]; 18 months,Pass
same,Assay RID - Polymeric Content SEC (% wt),[1]; 18 months,100.4%
same,Content 784 nm (% wt),[1]; 18 months,94.7%
same,Identification - SEC (RT),[1]; 18 months,Pass
same,Impurities Specified: ICG-like,[1]; 18 months,0.6%
same,Total Impurities,[1]; 18 months,0.6%
same,Water Content,[1]; 18 months,0.64%
same,% ICG 784 nm (% wt),[1]; 24 months,1.5%
same,Appearance,[1]; 24 months,Pass
same,Assay RID - Polymeric Content SEC (% wt),[1]; 24 months,99.7%
same,Content 784 nm (% wt),[1]; 24 months,98.1%
same,Identification - SEC (RT),[1]; 24 months,Pass
same,Impurities Specified: ICG-like,[1]; 24 months,0.6%
same,Microbial Limits Total aerobic count,[1]; 24 months,<1 cfu/mg
same,Microbial Limits Total yeast and mold,[1]; 24 months,<1 cfu/mg
same,Total Impurities,[1]; 24 months,0.6%
same,Water Content,[1]; 24 months,0.51%
same,Additional occult lesions detected,occult lesions; 1 patient with HNSCC and 4 patients with BC,5
same,Other occult tumors detected by in vivo wound-bed imaging,"occult lesions; missed by routine surgery, confirmed by pathology",2
same,Additional satellite lesions and second primaries detected ex vivo,occult lesions; pathology specimens,3
same,Ex Vivo Tissue Slice CNR,"[2]; 0.1 mg/kg, HNSCC",3.5 and 3.2 and 0.9
same,Ex Vivo Tissue Slice TBR,"[2]; 0.1 mg/kg, HNSCC",4.5 (2×) and 1.9
same,Ex Vivo Tissue Slice CNR,"[2]; 0.3 mg/kg, BC",7.0 and 14.1 and 3.2
same,Ex Vivo Tissue Slice TBR,"[2]; 0.3 mg/kg, BC",4.5 and 27.0 and 4.2
same,Ex Vivo Tissue Slice CNR,"[2]; 0.5 mg/kg, BC",6.4
same,Ex Vivo Tissue Slice TBR,"[2]; 0.5 mg/kg, BC",5.0
same,Ex Vivo Tissue Slice CNR,"[2]; 0.5 mg/kg, HNSCC",3.1 and 1.8
same,Ex Vivo Tissue Slice TBR,"[2]; 0.5 mg/kg, HNSCC",3.9 and 2.2
same,Ex Vivo Tissue Slice CNR,"[2]; 0.8 mg/kg, BC",5.7 and 9.2
same,Ex Vivo Tissue Slice TBR,"[2]; 0.8 mg/kg, BC",8.0 and 11.9
same,Ex Vivo Tissue Slice CNR,"[2]; 0.8 mg/kg, HNSCC",4.8
same,Ex Vivo Tissue Slice TBR,"[2]; 0.8 mg/kg, HNSCC",5.9
same,Ex Vivo Tissue Slice CNR,"[2]; 1.2 mg/kg, BC",3.9 and 10.5 and 7.6 and 3.4
same,Ex Vivo Tissue Slice TBR,"[2]; 1.2 mg/kg, BC",4.8 and 14.2 and 12.0 and 4.2
same,Ex Vivo Tissue Slice CNR,"[2]; 1.2 mg/kg, CRC",12.8
same,Ex Vivo Tissue Slice TBR,"[2]; 1.2 mg/kg, CRC",16.9
same,Ex Vivo Tissue Slice CNR,"[2]; 1.2 mg/kg, EC",2.9 and 2.1
same,Ex Vivo Tissue Slice TBR,"[2]; 1.2 mg/kg, EC",3.4 and 3.2
same,Ex Vivo Tissue Slice CNR,"[2]; 1.2 mg/kg, HNSCC",2.4 and 1.9 (2×) and 3.5 (2×) and 2.8 and 4.4
same,Ex Vivo Tissue Slice TBR,"[2]; 1.2 mg/kg, HNSCC",2.9 and 2.2 and 5.4 and 3.7 and 2.5 and 6.5 and 5.2
same,Patient tumor specimens with postoperative imaging feasibility,"[2]; Phase 1a, 0.1 to 1.2 mg/kg",15
same,Tumor MFI compared with non-tumor tissue,[2]; all dose cohorts,significantly higher
same,Median tumor-to-background ratio (TBR),"[2]; all tissue slices (n=97 from 26 subjects), IQR 3.1",4.5
same,Postoperative fluorescence of tumors,[2]; all tumor types and doses,fluoresced in tissue slices from all the patients and tumor types; also recorded: all tumors irrespective of tumor type or dose were fluorescent
same,Tumor MFI in relation to dose,"[2]; postoperative tissue slices, 0.1 to 1.2 mg/kg",increased with dose
same,ROC curve AUC,"[2]; tissue slices, 1.2 mg per kg dose cohort, n=59",0.9875
same,ROC curve area under the curve,"[2]; tissue slices, measurement level, P<0.0001",0.9726
same,TBR,"[2]; tissue slices, 1.2 mg/kg, IQR 3.0",4.5

# — patent publication US20230025280A1, “PH RESPONSIVE COMPOSITIONS, FORMULATIONS, AND METHODS OF IMAGING A TUMOR” (ONCONANO MEDICINE, INC, priority 2019, published 2023)
